Earlier results in article PMC12017986.
Read-outs that look alike come from different tables or passages of the source.

Experiments:
[1] = biological target: Swallow (Drosophila melanogaster) (UniProt P40688)
[2] = biological target: Dynein intermediate chain (IC) (Drosophila melanogaster) (UniProt Q24246)
[3] = biological target: Dynein intermediate chain (IC) (Drosophila melanogaster) (UniProt Q24246); remark: listed apart in the source

Chain of UniProt Q24246 (Q24246 whole entry): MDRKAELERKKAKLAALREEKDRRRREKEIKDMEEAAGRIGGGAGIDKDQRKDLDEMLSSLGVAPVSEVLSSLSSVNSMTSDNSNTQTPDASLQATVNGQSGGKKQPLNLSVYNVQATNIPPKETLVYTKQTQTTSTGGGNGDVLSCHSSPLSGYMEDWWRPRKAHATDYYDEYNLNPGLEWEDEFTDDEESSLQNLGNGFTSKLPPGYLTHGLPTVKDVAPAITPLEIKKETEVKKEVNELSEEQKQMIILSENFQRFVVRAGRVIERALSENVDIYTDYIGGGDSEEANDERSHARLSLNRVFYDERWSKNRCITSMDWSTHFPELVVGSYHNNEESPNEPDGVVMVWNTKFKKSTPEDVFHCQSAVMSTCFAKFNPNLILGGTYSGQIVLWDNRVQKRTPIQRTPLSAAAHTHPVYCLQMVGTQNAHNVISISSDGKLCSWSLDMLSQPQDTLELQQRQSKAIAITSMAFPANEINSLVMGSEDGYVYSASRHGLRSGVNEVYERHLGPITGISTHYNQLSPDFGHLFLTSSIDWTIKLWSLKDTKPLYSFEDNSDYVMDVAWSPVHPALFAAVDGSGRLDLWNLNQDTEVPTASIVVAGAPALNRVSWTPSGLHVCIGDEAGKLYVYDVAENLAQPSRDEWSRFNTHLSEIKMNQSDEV
Chain of UniProt P40688 (P40688 whole entry): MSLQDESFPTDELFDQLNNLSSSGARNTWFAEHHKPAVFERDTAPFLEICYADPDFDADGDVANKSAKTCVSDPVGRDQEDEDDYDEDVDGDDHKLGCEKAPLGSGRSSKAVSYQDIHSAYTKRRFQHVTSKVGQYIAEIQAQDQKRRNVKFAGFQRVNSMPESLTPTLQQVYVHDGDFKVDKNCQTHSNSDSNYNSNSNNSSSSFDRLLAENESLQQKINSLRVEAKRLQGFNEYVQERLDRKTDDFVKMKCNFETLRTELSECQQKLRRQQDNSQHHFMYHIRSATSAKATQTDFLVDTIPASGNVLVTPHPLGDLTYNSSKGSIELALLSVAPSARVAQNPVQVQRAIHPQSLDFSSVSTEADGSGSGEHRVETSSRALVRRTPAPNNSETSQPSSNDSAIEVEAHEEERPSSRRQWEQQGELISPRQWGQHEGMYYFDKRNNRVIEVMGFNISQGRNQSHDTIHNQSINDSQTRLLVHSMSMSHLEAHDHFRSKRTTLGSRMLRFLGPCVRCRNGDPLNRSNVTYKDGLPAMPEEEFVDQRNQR

- Kd [1]: 200 nM
- Kd [2]: 8000 nM
- Kd [3]: 130 nM
Substance: LC8 (from UniProt Q24117)
